Laboratory results published in patent US9296810 (Novartis, dated 2016).

Assays:
[1] = molecular target: T1, Human Serum Albumin (HSA) (human, UniProt P02768 25-609); assay: sandwich ELISA: VEGFR2-Fc immobilized, cleared lysate, then HSA, anti-HSA-HRP detection
Method: (§1) The binding characteristic of the multispecific and bispecific binders from Examples 6 and 7 were assessed as follows. […] Aliquots of cleared lysate of wild-type Fn10 (lane1), clone 87 (multispecific) (lane2), clone 89 (bispecific) (lane3) and PBS were added to the wells and incubated for 1 hour at room-temperature. These were run at different concentrations 1, 2 and 3. After washing 5 times with PBS/0.05% Tween, the wells were incubated with 1 µg/ml HSA in PBS. Detection was performed with HRP conjugated chicken anti-human HSA antibody (Abcam). The ELISA was developed with a […] substrate and the OD-values measured at 450 nm.

[2] = molecular target: T1, Human Serum Albumin (HSA); assay: sandwich ELISA
Method: as §1

[3] = molecular target: T1, Human Serum Albumin (HSA); assay: yeast display selection and ELISA screen of the HSA library
Summary of the method: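 Single clones from the HSA library were expressed in E. coli overnight at 37 °C in OvernightExpress medium in 96 deep-well plates, freeze-thawed, lysed with lysozyme/EDTA then DNaseI, and cleared. Wells coated overnight at 4 °C with 1.0 µg/mL HSA and blocked with casein received 50 µL lysate for 1 hour, then were washed. Binding was detected with HRP anti-His-tag antibody and TMB substrate, read as optical density at 450 nm per clone extract.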

T1 sequence (P02768 25-609 limits assumed): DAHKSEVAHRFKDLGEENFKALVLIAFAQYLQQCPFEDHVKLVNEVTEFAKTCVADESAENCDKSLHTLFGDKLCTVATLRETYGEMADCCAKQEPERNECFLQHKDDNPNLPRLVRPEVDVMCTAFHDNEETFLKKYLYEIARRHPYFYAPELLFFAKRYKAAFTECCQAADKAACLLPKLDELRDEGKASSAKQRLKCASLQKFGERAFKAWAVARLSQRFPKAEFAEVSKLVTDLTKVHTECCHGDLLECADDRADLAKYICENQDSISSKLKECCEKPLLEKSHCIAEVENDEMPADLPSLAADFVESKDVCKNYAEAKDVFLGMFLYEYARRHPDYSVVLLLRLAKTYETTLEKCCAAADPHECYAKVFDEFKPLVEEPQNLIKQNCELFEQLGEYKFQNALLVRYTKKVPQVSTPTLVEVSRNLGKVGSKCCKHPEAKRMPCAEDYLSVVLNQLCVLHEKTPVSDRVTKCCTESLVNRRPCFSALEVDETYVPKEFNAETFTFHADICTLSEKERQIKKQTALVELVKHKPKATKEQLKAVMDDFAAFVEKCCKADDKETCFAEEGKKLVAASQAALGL

B1: clone 89 (bispecific Fn3-based binding molecule; VEGFR2/Bottom side SEQ ID NO: 8 merged molecule) (designed binder)
chain: MGVSDVPRDLEVVAATPTSLLISWRHPHFPTRYYRITYGRTDAKSTRKEFTVPLQPPLATIGELKRGRDYTITVYAVTKERNGRELFTPISINYRPEKENLYFQGHHHHHH
notes: the entry ends in ENLYFQG-HHHHHH; also called VEGFR2-HAS; single bispecific fibronectin molecule
Question: Does B1 bind [1]?
Answer: Result: binds

B2: clone 87 (multispecific Fn3-based binding molecule; VEGFR2 top side binder fused to bottom side sequence 8 from FIG. 7 with GS linker) (designed binder)
chain: MGVSDVPRDLEVVAATPTSLLISWRHPHFPTRYYRITYGETGGNSPVQEFTVPLQPPLATISGLKPGVDYTITVYAVTKERNGRELFTPISINYRTGGGGSGGGGSVSDVPRDLEVVAATPTSLLISWDAPAVTVRYYRITYGRTDAKSTRKEFTVPGSKSTATIGELKRGRDYTITVYAVTGRGDSPASSKPISINYRPEKENLYFQGHHHHHH
notes: ELISA used cleared lysate, Biacore soluble protein; also called Fibronectin clone 87 (multispecific)
Question: Does B2 bind [2]?
Answer: Result: binds

B3: SEQ ID NO 8 (designed binder)
chain: VSDVPRDLEVVAATPTSLLISWDAPAVTVRYYRITYGRTDAKSTRKEFTVPGSKSTATIGELKRGRDYTITVYAVTGRGDSPASSKPISINYRPEK
notes: used to build clone 87 and clone 89
Question: Does B3 bind [3]?
Answer: Result: binds
